Measured values: the nanobody polyreactivity screen of Harvey et al. (2022)

test: yeast display, Sf9 membrane polyspecificity reagent, FACS + sequencing; frameworks hold sequencing errors
Outline: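 After 36–48 hours of galactose induction, yeast (Saccharomyces cerevisiae BJ5465) displaying a synthetic nanobody library were stained at 4 °C for 1 hour with 10% biotinylated, detergent-solubilized Sf9 membrane reagent. Streptavidin microbeads enriched the stained cells before FACS sorting into low and high (top ~1%) gates on anti-HA and streptavidin fluorescence. Each clone's polyreactivity label reflects its gate of origin.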

Sequence	polyreactivity (PSR sort gate)
QVQLVESGGGLVQAGGSLRLSCAASGRIFGYYAMGWYRQAPGKEREWVAAINSGGSTNYADSVKGRFTISRDNAKNTVYLQMNSLIPEDTAVYYCAAGWRYRYFRSRNFYPYYYWGQGTQVTVSS	high polyreactivity
QVQLVESGGGLVQAGGSLRLSCAASGRIFGYYAMGWYRQAPGKEREWVAAMSTNGGTTYYAYSVKGRFTISRDNAKNTVYLQMNSLKPEDTAVYYCAATYTVPGHARYDYWGQGTQVTVSS	low polyreactivity
QVQLVESGGGLVQAGGSLRLSCAASGRIFGYYGMGWYRQAPGNERELVAAITYRGGSTYYADSVKGRFTISRDNAKNTVYLQMNSLKPEDTVVYYCGADGYSNYRYLYDYWGQGTQVTVSS	low polyreactivity
QVQLVESGGGLVQAGGSLRLSCAASGRIFGYYMGWYRQAPGKERELVARITFRGGSTYYADSVKGRFTISRDNAKNTVYLQMNSLKPEDTAVYYCNASGKGGSTNRSDYWGQGTQVTVSW	high polyreactivity
QVQLVESGGGLVQAGGSLRLSCAASGRIFGYYTMGWYRQAPGKERELVAAITRDGGSTYYADSVKGRFTISRDNAKNTVYLQMNSLKPEDTAVDYCTAASQSRYYYWGQGTQVTVSS	high polyreactivity
QVQLVESGGGLVQAGGSLRLSCAASGRIFGYYTMGWYRQAPGKEWEVVAGISSGGSTNYADSVKGRFTISRDNAKNTVYLQMNSLKPEDTAVYDCAAAYPHFGGYRYDYWGQGTQVTVSS	high polyreactivity
QVQLVESGGGLVQAGGSLRLSCAASGRIFHFNTMGWYRQAPGKERELVAAITSSGGSTNYADSVKGRFTISRDNAKNTVYLQMNSLKPEDTAVYYCNADTGAADYFDFDYWGQGTQVTVSS	low polyreactivity
QVQLVESGGGLVQAGGSLRLSCAASGRIFHLYAMGWYRQAPGKERELVATINYEGGSTYYADSVKGRFTISRDNAKDTVYLQMNSLKPEDTAVYYCAADGYQDKYYWLETWVGYWGQGTQVTVSS	low polyreactivity
QVQLVESGGGLVQAGGSLRLSCAASGRIFHPNAMGWYRQAPGKERELVAAITNSGGITYADSVKGRFTISRDNAKNTVYLQMNSLKPEDTAVYYCNTATNRFHYKYRKPYDYWGQGTQVTVSS	low polyreactivity
QVQLVESGGGLVQAGGSLRLSCAASGRIFHQYAMGWYRQAPGKERELVAAITGGGSTYYADSVKGRFTISRDNAKNTVSLQMNSLKPEDTAVYYCAAPPFGYYEVGYDSWGQGTQVTVSS	low polyreactivity
QVQLVESGGGLVQAGGSLRLSCAASGRIFHRYDMGWDRQAPGKEREFVAAISSRGGSTYYADSVKGRVTISRDYAKNTVYLQMNSLKPEDTAVYYCAAQNGYRSGEFYYWGQGTQVTVSP	high polyreactivity
QVQLVESGGGLVQAGGSLRLSCAASGRIFHTYGMGWYRQAPGKERELVAAITWTGGSTYYADSVKGRFTISRDNAKNTVYLQMNSLKPEDTAVYYCAADYPRDIIGSMDYWGQGTQVTVSS	low polyreactivity
QVQLVESGGGLVQAGGSLRLSCAASGRIFHTYGMGWYRQAPGKVRELVAAITWTGGSTYYADSVKGRFTISRDNAKNTVYLQMNSLKPEDTAVYYCNARYVYHSSFAGFDYWGQGTQVTVSS	low polyreactivity
QVQLVESGGGLVQAGGSLRLSCAASGRIFHVNAMGWYRQAPGKERELVAAISTSGGRTYYADSVKGRFTISRDNAKNTVYLQLNSLKPEVTAVYYCAAVSRAPGLRYDYWGQGTQVTVSS	high polyreactivity
QVQLVESGGGLVQAGGSLRLSCAASGRIFHYNAMGWYRQAPGKERELVAAISTGGSTNYADSVKGRFTISRDNAKNTVYLQMNSLKPEDTAVYYCAADHPVTYPTTKFDYWGQGTQVTVSS	low polyreactivity
QVQLVESGGGLVQAGGSLRLSCAASGRIFHYYAMGWYRQAPGIERELVAAIRYSGGRTYYADSVKGRFTISRDNAKNTVYLQMNSLKPEDTAFYYCNAVPYVYKTITGDDYWGQGTQVTVSS	high polyreactivity
QVQLVESGGGLVQAGGSLRLSCAASGRIFHYYAMGWYRQAPGKEWELVAAISTSGGSTYYADSVKGRFTISRDNANNTVYIQMNSLKPEDTAVYYCAAVLPRYRRFDYWGQGTQVTVSS	high polyreactivity
QVQLVESGGGLVQAGGSLRLSCAASGRIFIGYAMGWYRQAPGKERELVAGISQRGGRTYYADSVKGRFTISRDNAKNTVYLQMNSLKPEDTAVYYCNKRFSLGYRGGYWGQGTQVTVSS	high polyreactivity
QVQLVESGGGLVQAGGSLRLSCAASGRIFINNAMGWYRQAPGKEREFVAAITSGGRTYYADSVKGRFTISRDNAKNTVYLQMNSLKPEDTAVYYCAARYYRQYTRHYGYGYWGQGTQVTVSS	high polyreactivity
QVQLVESGGGLVQAGGSLRLSCAASGRIFIPYALGWYRQAPGKERELVAAISYRGGSTYYADSVKGRFTISRDNAKNTVYLQMNSLKPEDTAVYYCANYDYWGQGTQVTVSS	high polyreactivity
QVQLVESGGGLVQAGGSLRLSCAASGRIFIRNAMGWYRQAPGKERELVAAITQSGGSTYYADSVKGRFTISRDNAKNTVYLQMNSLKPEDTAVYYCAADGDNPYLHEEDYWGQGTQVTVSS	high polyreactivity
QVQLVESGGGLVQAGGSLRLSCAASGRIFIRNAMGWYRQAPGTERELVAAITSDGITYYADSVKGRFTISRDNATNTVYLQMNSLKPEDTAVYYCAKVGGWFSNLFIPRYREYNYWGQGTQVTVSP	low polyreactivity
QVQLVESGGGLVQAGGSLRLSCAASGRIFIRNTMVWYRQAPGKERELVADISWRGGSTYYADSVKGRFTISRDNAKNTVYLEMNSLKPEDTAVYYSAAVVRSPAYDYWGQGTQVTVSS	high polyreactivity
QVQLVESGGGLVQAGGSLRLSCAASGRIFIRYAMGWYRQAPGKERELVASISRNGGTTYYADSVKGRFTISRDNAQNTVYLQMNSLKPEDTAVYYCNTVHRSVDKAGYDYWGQGTQVTVSS	high polyreactivity
QVQLVESGGGLVQAGGSLRLSCAASGRIFISYTMGLYRHAPGKERELVAGIDSSGTSTYYADSVKGRFTISRDNAKNTVYLQMNRLKPEDTAVYYCIVVANWKDTSTELDYWGQGTQVTVSS	low polyreactivity
QVQLVESGGGLVQAGGSLRLSCAASGRIFIYNAMGWYRQAPGKEREFVAAISSSGGSTYYADSVKGRFTISRDNAKNTVYLQMNSLKPEDTAVYYCAAGGWPYSGGLFFQPNYDYWGQGTQVTVSS	low polyreactivity
QVQLVESGGGLVQAGGSLRLSCAASGRIFIYNVMGWYRQAPGKERELVATISTGGTTNYADSVKGRFTISRDNAKNTVYLQMNSLKPEDTAVYYCNRGSGYWYLPAVKYDHWGQGTQVTVSS	low polyreactivity
QVQLVESGGGLVQAGGSLRLSCAASGRIFIYYTMGWYRQAPGKEREFVAAITYSGGSTRYADSVKGRFTISRDNAKNTVYLQMNSLKPEDTAVYYCAAKFSVRRGFDYWGQGTQVTVSS	low polyreactivity
QVQLVESGGGLVQAGGSLRLSCAASGRIFKAYAMGWSRQAPGKERELVAAITSTGSTYYADSVKGRFTISRDNAKNTVYLQMNSLKPEDTAVYYCNAVRYLEYDWGQGTQVTVSS	high polyreactivity
QVQLVESGGGLVQAGGSLRLSCAASGRIFKGYAIGWYRLAPGKERELVASITWRGGTTYYADSVKGRFTISRDNAKNTVYLQMNSLKPEDTAVYYCATTRYPRSYQEFGYWGQGTQVTVSS	high polyreactivity
